We go through one molecule from paper PMC7690626 (2020).

Holding throughout (assay): FACS; CXCR4+ Toledo cells
(In general: Flow cytometry measures light scatter and fluorescence of single cells or particles in a stream.)

Experiment [1] concerns the target T22-GFP-H6 protein nanoparticle (unlabeled) (horseshoe crab | , UniProt P14216).
The target of experiment [2] is T22-GFP-H6-ATTO nanoconjugate (T22-GFP-H6 labeled with ATTO488) (horseshoe crab | , UniProt P14216, ATTO488 covalently bound through exposed external lysines (NHS-ester to amine); Poisson dye load distribution, positions not given).
The target of experiment [3] is T22-GFP-H6-S-Cy5 nanoconjugate (T22-GFP-H6 labeled with Sulfo-Cyanine5) (horseshoe crab | , UniProt P14216, Sulfo-Cyanine 5 covalently bound through exposed external lysines (NHS-ester to amine); Poisson dye load distribution, positions not given).

B1: CXCR4 receptor on human Toledo diffuse large B-cell lymphoma cells (receptor)
chain: MEGISIYTSDNYTEEMGSGDYDSMKEPCFREENANFNKIFLPTIYSIIFLTGIVGNGLVILVMGYQKKLRSMTDKYRLHLSVADLLFVITLPFWAVDAVANWYFGNFLCKAVHVIYTVNLYSSVLILAFISLDRYLAIVHATNSQRPRKLLAEKVVYVGVWIPALLLTIPDFIFANVSEADDRYICDRFYPNDLWVVVFQFQHIMVGLILPGIVILSCYCIIISKLSHSKGHQKRKALKTTVILILAFFACWLPYYIGISIDSFILLEIIKQGCEFENTVHKWISITEALAFFHCCLNPILYAFLGAKFKTSAQHALTSVSRGSSLKILSKGKRGGHSSVSTESESSSFHSS
What is called Kd is the equilibrium constant for the complex coming apart. Read a high Kd as a looser complex. With B1, the values for the equilibrium dissociation constant (Kd) in experiment [1], in experiment [2] and in experiment [3] were 140 nM, 250 nM and 540 nM, respectively.
